# Measured values taken from patent US20170306033A1 (Amgen, published 2017).
# Substitutions are numbered along the chain they refer to.
# T1: human PAC1 receptor (human, UniProt P41586 21-468)
# T1 sequence: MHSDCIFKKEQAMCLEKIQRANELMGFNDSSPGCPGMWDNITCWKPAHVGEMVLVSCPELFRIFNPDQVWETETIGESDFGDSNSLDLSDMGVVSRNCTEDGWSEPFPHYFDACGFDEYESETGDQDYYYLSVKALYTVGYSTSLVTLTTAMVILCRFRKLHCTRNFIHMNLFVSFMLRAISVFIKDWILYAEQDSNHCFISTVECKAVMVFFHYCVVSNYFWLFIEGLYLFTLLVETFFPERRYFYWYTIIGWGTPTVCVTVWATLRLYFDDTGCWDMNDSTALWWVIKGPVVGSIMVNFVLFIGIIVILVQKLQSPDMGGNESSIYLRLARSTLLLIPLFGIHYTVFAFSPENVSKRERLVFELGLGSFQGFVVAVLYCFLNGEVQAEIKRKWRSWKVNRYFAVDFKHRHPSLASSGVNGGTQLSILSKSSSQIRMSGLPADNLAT
# B1: iPS:327879 (bispecific antibody, human IgG1, kappa, lambda, N297G)
# light 1: not shown
# heavy 1: not shown
# light 2: QSVLTQPPSVSAAPGQKVTISCSGSSSNIGNNYVSWYQQLPGTAPKLLIYDNNKRPSGIPDRFSGSKSGTSTTLGITGLQTGDEADYYCGTWDSRLSAVVFGGGTKLTVLGQPKANPTVTLFPPSSEELQANKATLVCLISDFYPGAVTVAWKADGSPVKAGVETTKPSKQSNNKYAAKSYLSLTPEQWKSHRSYSCQVTHEGSTVEKTVAPTECS
# heavy 2: QVQLVESGGGVVQPGRSLRLSCAASGFTFSSFGMHWVRQAPGKGLEWVAVISFDGSIKYSVDSVKGRFTISRDNSKNTLFLQMNSLRAEDTAVYYCARDRLNYYESSGYYHYKYYGMAVWGQGTTVTVSSASTKGPSVFPLAPSSKSTSGGTAALGCLVKDYFPEPVTVSWNSGALTSGVHTFPAVLQSSGLYSLESVVTVPSSSLGTQTYICNVNHKPSNTKVDKKVEPKSCDKTHTCPPCPAPELLGGPSVFLFPPKPKDTLMISRTPEVTCVVVDVSHEDPEVKFNWYVDGVEVHNAKTKPCEEQYGSTYRCVSVLTVLHQDWLNGKEYKCKVSNKALPAPIEKTISKAKGQPREPQVYTLPPSRKEMTKNQVSLTCLVKGFYPSDIAVEWESNGQPENNYKTTPPVLKSDGSFFLYSKLTVDKSRWQQGNVFSCSVMHEALHNHYTQKSLSLSPGK
# B2: iPS:327880 (bispecific antibody, human IgG1, kappa, lambda, N297G)
# light 1: not shown
# heavy 1: not shown
# light 2: B1 light 2 with G103K
# heavy 2: B1 heavy 2 with G44E
# B3: iPS:327885 (bispecific antibody, human IgG1, kappa, lambda, N297G)
# light 1: not shown
# heavy 1: not shown
# light 2: B1 light 2 with T72A, G103K
# heavy 2: B1 heavy 2 with G44E, E105D
# B4: iPS:327884 (bispecific antibody, human IgG1, kappa, lambda, N297G)
# light 1: not shown
# heavy 1: not shown
# light 2: B1 light 2 with T72A
# heavy 2: B1 heavy 2 with E105D
# B5: iPS:327894 (bispecific antibody, human IgG1, kappa, lambda, N297G)
# light 1: not shown
# heavy 1: not shown
# light 2: B1 light 2 with T72A
# heavy 2: B1 heavy 2
# B6: iPS:327882 (bispecific antibody, human IgG1, kappa, lambda, N297G)
# light 1: not shown
# heavy 1: not shown
# light 2: B1 light 2
# heavy 2: B1 heavy 2 with E370K
# B7: iPS:327892 (bispecific antibody, human IgG1, kappa, lambda, N297G)
# light 1: not shown
# heavy 1: not shown
# light 2: B1 light 2 with T72A, G75A
# heavy 2: B1 heavy 2 with E105D, E370K
# B8: iPS:327872 (bispecific antibody, human IgG1, kappa, N297G)
# light 1: DIQMTQSPSSLSASVGDRITITCRASQSISRYLNWYQQKPGKAPKLLIYAASSLQSGIPSRFSGSGSGTDFTLTINSLQPEDFATYFCQQSYSPPFTFGQGTKVDIKRTVAAPSVFIFPPSDEQLKSGTASVVCLLNNFYPREAKVQWKVDNALQSGNSQESVTEQDSKDSTYSLESTLTLSKADYEKHKVYACEVTHQGLSSPVTKSFNRGEC
# heavy 1: not shown
# light 2: EIVLTQSPGTLSLSPGERATLSCRASQSVSSGYLTWYQQKPGQAPRLLIYGASSRATGIPDRFSGSGSGTDFTLTISRLEPEDFAVYYCQQYGNSLSRFGQGTKLEIKRTVAAPSVFIFPPSDEQLKSGTASVVCLLNNFYPREAKVQWKVDNALQSGNSQESVTEQDSKDSTYSLKSTLTLSKADYEKHKVYACEVTHQGLSSPVTKSFNRGEC
# heavy 2: not shown
# B9: iPS:326666 (bispecific antibody, human IgG2, kappa)
# light 1: not shown
# heavy 1: QVQLQESGPGLVKPSQTLSLTCTVSGGSISSGGYYWSWIRQHPGKGLEWIGYIYYSGNTYYNPSLKSRVTISGDTSKNQFSLKLRSVTAADTAVYYCTRGGAARGMDVWGQGTTVTVSSASTKGPSVFPLAPCSRSTSESTAALGCLVKDYFPEPVTVSWNSGALTSGVHTFPAVLQSSGLYSLKSVVTVPSSNFGTQTYTCNVDHKPSNTKVDKTVERKCCVECPPCPAPPVAGPSVFLFPPKPKDTLMISRTPEVTCVVVDVSHEDPEVQFNWYVDGVEVHNAKTKPREEQFNSTFRVVSVLTVVHQDWLNGKEYKCKVSNKGLPAPIEKTISKTKGQPREPQVYTLPPSREEMTKNQVSLTCLVDGFYPSDIAVEWESNGQPENNYDTTPPMLDSDGSFFLYSDLTVDKSRWQQGNVFSCSVMHEALHNHYTQKSLSLSPGK
# light 2: B8 light 2
# heavy 2: QVQLVESGGGVVQPGRSLRLSCAASGFTFSSYGMHWVRQAPGKGLEWVAVIWYDGSNKYYADSVKGRFIISRDKSKNTLYLQMNSLRAEDTAVYYCARAGGIAAAGLYYYYGMDVWGQGTTVTVSSASTKGPSVFPLAPCSRSTSESTAALGCLVKDYFPEPVTVSWNSGALTSGVHTFPAVLQSSGLYSLESVVTVPSSNFGTQTYTCNVDHKPSNTKVDKTVERKCCVECPPCPAPPVAGPSVFLFPPKPKDTLMISRTPEVTCVVVDVSHEDPEVQFNWYVDGVEVHNAKTKPREEQFNSTFRVVSVLTVVHQDWLNGKEYKCKVSNKGLPAPIEKTISKTKGQPREPQVYTLPPSRKKMTKNQVSLTCLVKGFYPSDIAVEWESNGQPENNYKTTPPMLKSDGSFFLYSKLTVDKSRWQQGNVFSCSVMHEALHNHYTQKSLSLSPGK
# B10: iPS:327874 (bispecific antibody, human IgG1, kappa, N297G)
# light 1: not shown
# heavy 1: not shown
# light 2: B8 light 2
# heavy 2: not shown
# B11: iPS:327893 (bispecific antibody, human IgG1, kappa, lambda, N297G)
# light 1: B8 light 1
# heavy 1: not shown
# light 2: B1 light 2 with T72A
# heavy 2: B1 heavy 2
# B12: iPS:327891 (bispecific antibody, human IgG1, kappa, lambda, N297G)
# light 1: B8 light 1
# heavy 1: not shown
# light 2: B1 light 2 with T72A, G75A
# heavy 2: B1 heavy 2 with E105D, E370K
# B13: iPS:327881 (bispecific antibody, human IgG1, kappa, lambda, N297G)
# light 1: B8 light 1
# heavy 1: not shown
# light 2: B1 light 2
# heavy 2: B1 heavy 2 with E370K
# B14: iPS:327883 (bispecific antibody, human IgG1, kappa, lambda, N297G)
# light 1: B8 light 1
# heavy 1: not shown
# light 2: B1 light 2 with T72A
# heavy 2: B1 heavy 2 with E105D
# Molecular target: T1, human PAC1 receptor
# Test: cell-based or functional assay
row,% inhibition of human PAC1 [%],Binder
1,19,B1
2,15,B2
3,7,B3
4,8,B4
5,12,B5
6,13,B6
7,33,B7
8,40,B8
9,15,B9
10,5,B10
11,56,B11
12,78,B12
13,16,B13
14,27,B14

# Molecular target: human CGRP receptor (human, UniProt Q16602 23-461; O60894 27-148)
# Test: cell-based or functional assay
# Sequence of human CGRP receptor (Q16602 23-461 limits assumed, chain 1 of 2): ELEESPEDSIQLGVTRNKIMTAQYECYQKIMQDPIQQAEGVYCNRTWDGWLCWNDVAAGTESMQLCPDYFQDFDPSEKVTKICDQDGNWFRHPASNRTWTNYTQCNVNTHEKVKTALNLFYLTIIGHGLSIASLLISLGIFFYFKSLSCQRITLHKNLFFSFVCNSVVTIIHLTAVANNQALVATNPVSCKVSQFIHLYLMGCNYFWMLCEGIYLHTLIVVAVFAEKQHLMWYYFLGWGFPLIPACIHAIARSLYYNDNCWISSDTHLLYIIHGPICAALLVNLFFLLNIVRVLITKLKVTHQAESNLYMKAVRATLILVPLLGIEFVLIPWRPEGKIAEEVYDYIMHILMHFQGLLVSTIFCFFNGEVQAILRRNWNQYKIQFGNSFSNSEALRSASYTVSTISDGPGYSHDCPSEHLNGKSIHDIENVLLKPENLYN
# Sequence of human CGRP receptor (O60894 27-148 limits assumed, chain 2 of 2): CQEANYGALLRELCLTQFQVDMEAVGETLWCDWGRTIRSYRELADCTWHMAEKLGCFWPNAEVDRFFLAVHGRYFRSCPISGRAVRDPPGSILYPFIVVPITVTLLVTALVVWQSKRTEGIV
row,% inhibition of human CGRPR [%],Binder
1,81,B1
2,87,B2
3,73,B3
4,78,B4
5,80,B5
6,83,B6
7,88,B7
8,80,B8
9,74,B9
10,95,B10
11,74,B11
12,80,B12
13,76,B13
14,77,B14
